Literature values, collected in PMC5680199.

Target: human thrombin (human) (UniProt P00734+P00734)
Test: not stated (cited)
Details: phi29 DNA polymerase buffer adjusted to 10 mM K+ (optimum), ThT-HE 5 uM, 37 C, 2 h; pH not given in material

29-mer thrombin-binding aptamer (TBA)
Kd: 0.5 nM
